Article PMC4282423

Target: T1, BldD (His-tagged) (Streptomyces coelicolor) (UniProt Q7AKQ8)
T1 sequence: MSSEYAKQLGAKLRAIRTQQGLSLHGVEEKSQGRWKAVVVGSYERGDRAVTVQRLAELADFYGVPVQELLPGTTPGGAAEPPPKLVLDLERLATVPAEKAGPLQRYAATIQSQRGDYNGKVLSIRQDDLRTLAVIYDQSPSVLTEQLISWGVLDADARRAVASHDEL
Test: DNase I footprinting
Settings: EMSA and extract footprinting: 25 mM HEPES pH 7.5, 4 mM DTT, 1 mM ATP, 10 mM Mg-acetate, 4% glycerol, 1 ug poly(dI-dC), 30 C, 20 min; purified BldD …

GTGCAGGCCGTCAGCAGCAGGGCGGAGGCGCCCAGGGCACCGACCACGGCCAGCGAACGCAAGGGGGGAAGTCGTCGTGCAGAGCTCATGATGCTGTCCGTAACCGCTCCGTCACGCAGACACACCGGACCGGTATGAAAATCACCCTATTGGCCGGGGTGGGGCGACGTCCCGTGGGCGGCGGGACCGGGAGCCTTCAG (double strand) [sspA promoter footprint probe (7434_F1/7434_R1)]
binding: binds
